Series [1] has as its target T1, Sox2 HMG (human, UniProt P48431 40-123). Nature of the series: fluorescence anisotropy; apparent; Hill n 0.68; FP at 4°C; ERα: 20 mM Tris pH 7.5 (at 25°C), 100 mM NaCl, 5% glycerol, 0.01% IGEPAL; Sox2: 10 mM Tris pH 7.5 (at 25°C), 135 mM KCl, 15 mM NaCl, 0.1 mg/mL BSA, 4% Ficoll, 0.05% NP-40, 1 mM DTT; SPR: ERα buffer, 25°C. The note with it: protein: recombinant; tags: N-terminal His8-MBP, 3C-cleaved.

In series [2] the target is T1, Sox2 HMG. As to the kind of experiment: fluorescence anisotropy; second (low-affinity) transition; FP at 4°C; ERα: 20 mM Tris pH 7.5 (at 25°C), 100 mM NaCl, 5% glycerol, 0.01% IGEPAL; Sox2: 10 mM Tris pH 7.5 (at 25°C), 135 mM KCl, 15 mM NaCl, 0.1 mg/mL BSA, 4% Ficoll, 0.05% NP-40, 1 mM DTT; SPR: ERα buffer, 25°C. The note with it: protein: recombinant; tags: N-terminal His8-MBP, 3C-cleaved; G-quadruplex.

The target of series [3] is T1, Sox2 HMG. As to the kind of experiment: fluorescence anisotropy; printed ≤1; first (high-affinity) transition, 44% of signal; FP at 4°C; ERα: 20 mM Tris pH 7.5 (at 25°C), 100 mM NaCl, 5% glycerol, 0.01% IGEPAL; Sox2: 10 mM Tris pH 7.5 (at 25°C), 135 mM KCl, 15 mM NaCl, 0.1 mg/mL BSA, 4% Ficoll, 0.05% NP-40, 1 mM DTT; SPR: ERα buffer, 25°C. The note with it: protein: recombinant; tags: N-terminal His8-MBP, 3C-cleaved; G-quadruplex.

The results in this text go back to publication PMC11251522, “Transcription factors ERα and Sox2 have differing multiphasic DNA- and RNA-binding mechanisms”.

Bounds are passed on as bounds.

T1 sequence (P48431 40-123): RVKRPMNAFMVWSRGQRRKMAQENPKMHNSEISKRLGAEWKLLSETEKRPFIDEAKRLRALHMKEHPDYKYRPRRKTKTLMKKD

In the case of AAAAAAAAAAAAAAAAAAAA (ssRNA) [poly(A) RNA (rA20)], in the series with Sox2 HMG [1], the Kd stood at 40 ± 13 nM.
In the case of GGGAAGGGAAGGGAAGGGAA (structured_RNA) [G4 RNA (rG4), (G3A2)4], the Kd in the series with Sox2 HMG [2] is 110 ± 32 nM; with Sox2 HMG [3], less than 1 nM.
